The experiment deals with T1, BACE1 (UniProt P56817 46-501, limits assumed).
T1 construct: Detected as monomer and dimer in the co-immunoprecipitates; also called β-secretase
As to the kind of experiment: co-immunoprecipitation from HEK 293 lysates with nectin-1 cytoplasmic specific antibody, anti-BACE1 Western blot. Here is the method:
To define the minimal region within the ectodomain of nectin-1 required for BACE1 interaction, immunoprecipitations between the nectin-1 truncation mutants and BACE1 were performed. BACE1 and full length or truncated nectin-1 were co-expressed in HEK 293 cells and harvested 48 hr. after transfection. To confirm to the efficiencies of the co-transfections, equal volumes of cell lysate were loaded on SDS-PAGE gels and analyzed by Western blot. Transfection efficiency was similar for nectin-1 and its derivates (FIG. 10A) and BACE1 (FIG. 10B). Immunoprecipitation was performed with a nectin-1 cytoplasmic specific antibody and precipitates were analyzed on two separate 10% SDS-PAGE. Western blots were probed with anti-nectin-1 (FIG. 10C) or anti-BACE1 (FIG. 10D) antibodies. The nectin-1 antibody directly immunoprecipitated the respective nectin-1 polypeptides and processed CTFs (FIG. 10C). Furthermore, BACE1, both monomer and dimer, was immunoprecipitated by the nectin-1 antibody, confirming the association of BACE1 with nectin-1. Two truncation mutants Δ28-250 and Δ28-300, interacted with BACE1 very strongly.

T1 sequence (P56817 46-501 limits assumed): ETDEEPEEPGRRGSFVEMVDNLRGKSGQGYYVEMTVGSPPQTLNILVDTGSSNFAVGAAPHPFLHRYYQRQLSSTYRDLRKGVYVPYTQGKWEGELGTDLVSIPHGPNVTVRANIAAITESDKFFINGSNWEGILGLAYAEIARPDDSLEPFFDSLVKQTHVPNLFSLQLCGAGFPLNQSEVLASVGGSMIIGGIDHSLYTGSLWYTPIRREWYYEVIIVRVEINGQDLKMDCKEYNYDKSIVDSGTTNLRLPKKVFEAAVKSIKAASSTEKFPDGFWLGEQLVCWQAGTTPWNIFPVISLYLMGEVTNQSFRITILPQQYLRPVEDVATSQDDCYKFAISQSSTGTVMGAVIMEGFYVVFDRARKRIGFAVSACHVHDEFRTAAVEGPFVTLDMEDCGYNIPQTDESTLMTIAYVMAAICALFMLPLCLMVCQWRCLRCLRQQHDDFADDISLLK

B1: nectin-1 truncation mutant Δ28-349 (receptor)
chain: PTAIIGGVAGSILLVLIVVGGIVVALRRRRHTFKGDYSTKKHVYGNGYSKAGIPQHHPPMAQNLQYPDDSDDEKKAGPLGGSSYEEEEEEEEGGGGGERKVGGPHPKYDEDAKRPYFTVDEAEARQDGYGDRTLGYQYDPEQLDLAENMVSQNDGSFISKKEWYV
notes: see m5; not shown: flag tag at the C-terminus
For the molecule B1, the binding result is reported as “no binding”.
